Measurements taken from the nanobody polyreactivity screen of Harvey et al. (2022).

Assay: yeast display, Sf9 membrane polyspecificity reagent, FACS + sequencing; frameworks hold sequencing errors
Outline: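 Genes from sorted yeast were amplified by colony PCR, read by MiSeq 2 × 250 sequencing and filtered on CDR length. These cells carried a synthetic nanobody library in Saccharomyces cerevisiae BJ5465 and were sorted by FACS into low and high (top ~1%) gates on anti-HA and streptavidin fluorescence. Polyreactivity is labelled according to the gate of origin.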

Row | Sequence | polyreactivity (PSR sort gate)
1 | QVQLVESGGGFFQAGGSLRLSCAASGNTFGINAMRWYREAPGKERELVAAISWSGDRTYYADSVKGRFTISRDNAKNTVYLQMNSLKPEDTAVYYCAAGKYRFTYYALEYDYWGQGTQVTVSS | low polyreactivity
2 | QVQLVESGGGFVQAGGSLRLICAASGSILHSYSMGWYRQAPGKERELVAAISGSGGSTYYADSVKRRFTISRDNAKNTVYLQMNSLKPEDTAVYYCAAVWSRADRYYYWGQGTQVTVSS | low polyreactivity
3 | QVQLVESGGGFVQAGGSLRLRCAASGRTFGWYAMGWYRQAPGKERELVAAITWRGGSTYYADSVKGRFTISRDNAKNTVYLQMNSLKPEDTAVYYCAAAAEKRSYYWGQGTQVTVSS | high polyreactivity
4 | QVQLVESGGGFVQAGGSLRLSCAASGFIFRVYAMGWYRPAPGKERELVAAISKRGGSTFYADSVKGRFTISRDNANNTVYLQMNSLKPEDTAVYDCAASARLGYDYWGQGTQVTVSS | high polyreactivity
5 | QVQLVESGGGFVQAGGSLRLSCAASGFTFGWYALGWYRQAPGKERELVAAMSFGGSRTYYADSVKGRFSISRDNAKNTVYLQLNILNPEDTAVYYCNVVVGSYSANARSHYWGQGTEVTVSS | high polyreactivity
6 | QVQLVESGGGFVQAGGSLRLSCAASGGTFYRYAMGWYRQAPGKERELVAVISRGLRTNYADSVKGRFTISRDNAKNTVYFQMNSLQPEDTAVYYCAAHQYRVYRHGFDYWGQGTQVTVSS | high polyreactivity
7 | QVQLVESGGGFVQAGGSLRLSCAASGIIVRANAMGWYRQAPGKERELVAAISSSGGSTFYADSVKGRFTISLDNAKNYVYLQMNSLNPEDTAVYYCAAGRTKFAWSEYEYWGQGTQVTVSS | low polyreactivity
8 | QVQLVESGGGFVQAGGSLRLSCAASGNIFESYGMGWYRHAPGKERELVATINSSSGSTYYADSVKGRFTISRDNAKNTVYLQMNSLKPEDTAVYYCAAEWYPYPWGYGYWGQGTQVTVSS | low polyreactivity
9 | QVQLVESGGGFVQAGGSLRLSCAASGRTFPEYDMGRYRQAPGKERELVAAISTSGGSTYYADSVKGRFTISRDIAKNTVYLQMNSLKPEDTGVYYCAAQVTSIWGFTYAYRYDYWGQGTHVTVSS | low polyreactivity
10 | QVQLVESGGGFVQAGGSLRLSCAASGSIFDQYAMGWSRQAPGKERELVAGISSSGSTYADSVKGRFTISRDNAKNTVYLQMNSLKPEDTAVYSCAKDYGVLGGGTGSDRMDYWGQGSQVTVSS | low polyreactivity
11 | QVQLVESGGGFVQAGGSLRLSCAASGSTFHGYAMGWYRQEPGKERELVAAITSSGGSTYYADSVKGRFTISRDNAKNTVYLLMNILNPEVTEVYYCAARRYGWGRAQSSASYDHWGQGTQVTVSS | high polyreactivity
12 | QVQLVESGGGFVQAGGSLRLSCAASGSTFRYYAMGWYRQAPGTEREFVAAISWSGSSTYYADSVKGRFTISRDNAKNTVYLQMNSLKPEDTAVYYCAARYRYYGYDYWGQGTQVTVSS | high polyreactivity
13 | QVQLVESGGGFVQAGGSLRLSCAASGSTFSPNGMGWYRPAPGKERELVAAISSSTGSTNYADSVKGRFTISRDNAKNTVYLQMNSLKPEDTAVYYCAVDPYVHWTTKLYDYWGQGSQVTVSS | low polyreactivity
14 | QVQLVESGGGFVQAGGSLRLSCAASGYIFEWNAMGWYRQAPGKERELVASIDSDGSTYYADSVKGRFTISRDNAKNTVYLQMNSLKPEDTAVYYCNARGYTGGEVLAEYDYWGQGTQVTVSS | low polyreactivity
15 | QVQLVESGGGFVQAGGSLRLSCAGSGRIYYRYAMGWYSQERGKERELVAAISGSVGSTYADYVKGRFTISRDNAKNTVYLQMKSLKPEDTAFYYCARETYGRYGAYDYWGQGTQVTVSS | low polyreactivity
16 | QVQLVESGGGFVQAGGSLRLSSAASGLTFAAYAMGWSRQAPGKERELVASISRRGGSTYYADSVKGRFTISRDNAMNTVYLQMNSLKPEDTAVYYCAARSFWGGLRYDYWGQGTQVTVSS | high polyreactivity
17 | QVQLVESGGGFVQAGGSLRLSSAASGSTLPGYAMGSYRQAPGKERELVAGISTRGGNTYYADSVKGRFTISRDNAKNTVYLPMNSLKPEDTAVYYCAAGIPRQAYKFYWGQGTQVTVSS | high polyreactivity
18 | QVQLVESGGGFVQAGRSLRISSAPSGLMFLGKAMGWYRPAPGKERDLVGGIRALGGTTSYAYSVKGRFTISRDNAKNTVFLQLICKKPEDTELYVCAASYVSSRYFVLRHGDYYWGKGTQVTVSS | low polyreactivity
19 | QVQLVESGGGFVQAGVSLRLSCAASGLILVPNTMGWYRQAPGKERELVATITNGGSTNYADSVKGRFTISRDNAKNTVYLQMNSLKPEDTAVSYCNADHSYHIASTRHVDYWGQGTQVTVSS | low polyreactivity
20 | QVQLVESGGGIFQAGGSLRLSCSASGNTLVIYAMGWYRQAPVKESELVAAISRAGGTTYYADSVKGRFTISRDKAKNTVYLQMNSLKPEDTEVFYCNAGDHMRKRYGISATWGYGYGYWGQGSQVTVSS | high polyreactivity
21 | QVQLVESGGGILQAGGSLRLSCAASGFILSPNTMAWSRQAPGKERELVAAISSDVSTYADSVKGRFTISRDNAKNTVYLQINSLKPEDTAVYYCNADDFGYASYEYWGQATQVTVSS | low polyreactivity
22 | QVQLVESGGGILQAGGSLRLSCAASGSTFSGYAMGWYRQATGKERELVAAISSSGGSTYYADSVKGRFTISRDNAKNTVYLKMNSQKPEDTAVYYCAKRRYGKHYTGLTSYYYWGHGTQVTVSS | high polyreactivity

Row | Sequence | polyreactivity (PSR sort gate)
23 | QVQLVESGGGIVHAGGSLGLSCAASGRIFYSNAMGWYRQAPGKERELVAAISWNGGRTYYADSVKGRFTISRDNAKNTVYLQMKSLKPEDHAVYYCAVRYARQYYYRSGAYASRYLYNYWGQGTQVTVSS | high polyreactivity
24 | QVQLVESGGGIVHAGGSLRLSCAASGIIFLFYAMGWYRQARVKERELVASITWSGGSTYYADSVKGRFTISRDNAKNNVFLQMLSLKPEDTSVYYCAASVNIISYLVHSEFLGGELDYWGQGTQVTVSS | low polyreactivity
25 | QVQLVESGGGIVKAGGSLRISCAASGSTFIVNAMGWYRQAPGKERELVAAITEDGDTTYYADSVKGRFTISRDNAKNTVYLQMNSLKPEDTAVYFCAAETYYLDDYWGQGTQVTVSS | high polyreactivity
26 | QVQLVESGGGIVPAGGSLRLSCAASGLIFKTYTMGWSRQAPGKEREFVAAITTSGGSTYYADSVKGRFTISRDNAKNTVYLQMNSLKPEDTAVYSCGAVWWKSFQGSSYRMNYWGQGTQVTVSS | high polyreactivity
27 | QVQLVESGGGIVPAGGSLRLSCAASGLTFRFNAMGWYRQAPGKERELVADITVSGGRTYYADSVKGRFTISRDNAKNTVYLQMNSLKPEDTAVYYCARRRTVGVTEPFSRGYDYWGQGTQVTVSS | low polyreactivity
28 | QVQLVESGGGIVQAGGSLRFSCAASGGTFYRYAMGWYRLAPGNERELVAAISSSGGSTYYAVSVKGRFTISRDNAKNTVYLQMNSLKPEDTAVYYCAAYSFQSHNFDYWGQGSQVTVSS | high polyreactivity
29 | QVQLVESGGGIVQAGGSLRFSCAASGSTFLYYAMGWYRLAPGKETEFVADISFSGGSTYYADSVKGRFTSSRDNAKNTVYLQMNSLKPEDTGVYNCAARKKEYKAGNYWGQGTQVNVSS | low polyreactivity
30 | QVQLVESGGGIVQAGGSLRISCAASGSIFFGYAMGWYRPATGKERELVADITVGGGSPFYADSVKGRFTISRDNEKNTVYLQMNSLKPDDTAVYYCADDYYTQWLTRYDYWGQGTQVTLSS | low polyreactivity
31 | QVQLVESGGGIVQAGGSLRLICAASGSIFDGYAMGWYRQAPGKERELVAAISASGVRTYYADSVKGRFTISRDNAKNTVYLQMKSLKPEDTAVYYGAAAVYYGQSVWYYYWGQGTQVTVSS | high polyreactivity
32 | QVQLVESGGGIVQAGGSLRLLCAASGRIFTGNVMGWYRQAPGKERVLVAAISYGGGSTNYADSVKGRFTISRDNAKNTVSLQMNSLIPEDTAVYYCAVLYGYRSSSRYGYDSWGQGSQVTVSS | high polyreactivity
33 | QVQLVESGGGIVQAGGSLRLLCAASGSIFLTNAMGWYRQAPGKERQFVAAIDWGGTITYYADSVKGRFTISRDNAKNNVYLQMNSLKPEDTAVYYCAADGYIRQYVTYYYWGQGTQVTVSS | low polyreactivity
34 | QVQLVESGGGIVQAGGSLRLRCAASGFIFAVNAKGWYRQAPGKESELVAAISSSGTTNYADSVKGRFTISRDNAKNTVYLQMNSLKPEDTAVYYCNKRWRDKYPQYDYWGLGTQVTVSS | low polyreactivity
35 | QVQLVESGGGIVQAGGSLRLRCAASGSIFVPYAMGWYRQAPGKERELVAAISSRGGRTYYADSVKGRFTISRDNAKNTVYLQMNSLKPEDTAVYYCNKTAGSHIPRLEYWGQGTQVTVSS | low polyreactivity
36 | QVQLVESGGGIVQAGGSLRLSCAASGFIFGPYTMGWYRQAPGKERELVAAINNSGSTNYADSVKGRFTISRDNAKNTVYLQMNSLKPEDTAVYYCAAEPIIFVRYDYWGQGTHVTVSS | low polyreactivity
37 | QVQLVESGGGIVQAGGSLRLSCAASGFIFHLYGMGWYRQAPGKERELVAAISSGGRTYYADSVKGRFTISRDNAKNTVSLQMNSLKPEDTAVYSCAVYVAYLYSYYYWGQGTQVNVSS | low polyreactivity
38 | QVQLVESGGGIVQAGGSLRLSCAASGFIFRYAMGWYRPAPGKERELVAAISSSGGSTNYADSVKGRFTISRDNAKNTVYLQMNILKPEDSAVYYCAADQYYGGSWWYDYWGQGTQVSVSS | high polyreactivity
39 | QVQLVESGGGIVQAGGSLRLSCAASGFIFSSYAMGWYRQAPGKERELVAAITVRAGRTYYADSVKGRFTISRDNAKKTVYLQMNSLKPEDTAVYYCNAVSTAVIGYEYDYWGQGTQVTVSS | high polyreactivity
40 | QVQLVESGGGIVQAGGSLRLSCAASGFIIRPYAMGWYRQAPGKERELVAAITGGGSTYYADSVKGRFTISRDNAKNTVYLQMNSLKPEDTAVYYCNADRRRRSGGFAGWHFQRNVYWGQGTQVTLSS | low polyreactivity
41 | QVQLVESGGGIVQAGGSLRLSCAASGFILDYNAMGWYRQAPGKERELVATITGRGDRTYYADSVKGRFTISRDNAKNTVYLQMNSLKPEDTAVYDCAAGFDGSRHPGFDSWGQGTQVTVSS | low polyreactivity
42 | QVQLVESGGGIVQAGGSLRLSCAASGFISSVNAMGWYRQAPGKDRELVAAISDSATSTYYADSVKGRFTISRDNAKNTVYLQMNSLKPEDTAVYYCDAYSHYVGYEYWGQGTQVTVSS | high polyreactivity
43 | QVQLVESGGGIVQAGGSLRLSCAASGFTFDPYAMGWYRQAPGKERELVAATSWSGGSTYYADSVKGRFTISRDNAKNTVYLQMNSLKPEDTAVYYCAAEWYNSAYYEYDYWGQGTQVTVSS | high polyreactivity
